This note sets out measurements from patent US20200102387A1 (CELGENE, published 2020).

The target of one assay is T1, FcγR1 (CD64) (human, UniProt P12314 16-374).
T1 construct: whole, on cells
Description: cell binding, FcγR-engineered HEK293 cells.

For another assay, the target named is T2, FcγR2B (human, UniProt P31994 43-310).
T2 construct: whole, on cells
T2 sequence (looked up): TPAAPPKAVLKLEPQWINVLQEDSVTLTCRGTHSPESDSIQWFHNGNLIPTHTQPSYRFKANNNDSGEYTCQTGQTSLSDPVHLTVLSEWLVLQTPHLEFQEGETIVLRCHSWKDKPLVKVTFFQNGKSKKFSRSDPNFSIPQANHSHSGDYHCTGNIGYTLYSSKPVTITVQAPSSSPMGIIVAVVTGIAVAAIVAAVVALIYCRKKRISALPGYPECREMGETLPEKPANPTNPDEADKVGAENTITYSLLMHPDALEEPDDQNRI
Description: cell binding, FcγR-engineered HEK293 cells.

A further assay has as its target T3, FcγR3A (CD16aV158) (human, UniProt P08637 17-254).
T3 construct: whole, on cells
Description: cell binding, FcγR-engineered HEK293 cells.

The target of assay [1] is T4, cynomolgus SIRPα on cells (cynomolgus, UniProt P78324 31-373 (human entry)).
T4 construct: also called cyno SIRPα-CHO; Cyno SIRPα-CHO-K1; not shown: Transmembrane and cytoplasmic region of cynomolgus SIRPα
T4 chain: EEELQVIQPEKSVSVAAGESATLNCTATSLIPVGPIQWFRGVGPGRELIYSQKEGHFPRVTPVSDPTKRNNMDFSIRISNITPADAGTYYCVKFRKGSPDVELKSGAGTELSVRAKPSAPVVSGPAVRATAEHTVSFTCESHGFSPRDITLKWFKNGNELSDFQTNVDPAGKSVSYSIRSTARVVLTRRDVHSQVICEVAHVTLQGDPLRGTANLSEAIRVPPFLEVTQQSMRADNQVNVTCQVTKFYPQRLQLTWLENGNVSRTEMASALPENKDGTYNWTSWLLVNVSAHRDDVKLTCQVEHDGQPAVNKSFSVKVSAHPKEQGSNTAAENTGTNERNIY
Description: flow cytometry of cynomolgus whole blood, gated CD14+ cells, Donor 1. (A flow cytometer gives signals particle by particle.)

For assay [2], the target named is T4, cynomolgus SIRPα on cells. Description: flow cytometry of cynomolgus whole blood, gated CD14+ cells, Donor 2.
Assay [3] concerns the target T4, cynomolgus SIRPα on cells. Description: flow cytometry, cyno whole blood, gated CD14+ population, PE-conjugated antibody, one of two donors.
Assay [4] deals with T5, mouse SIRPα on cells (mouse, UniProt P97797 32-513).
T5 construct: whole, on cells; also called mouse SIRPα-CHO-K1; Ms SIRPα-CHO-K1
T5 sequence (looked up): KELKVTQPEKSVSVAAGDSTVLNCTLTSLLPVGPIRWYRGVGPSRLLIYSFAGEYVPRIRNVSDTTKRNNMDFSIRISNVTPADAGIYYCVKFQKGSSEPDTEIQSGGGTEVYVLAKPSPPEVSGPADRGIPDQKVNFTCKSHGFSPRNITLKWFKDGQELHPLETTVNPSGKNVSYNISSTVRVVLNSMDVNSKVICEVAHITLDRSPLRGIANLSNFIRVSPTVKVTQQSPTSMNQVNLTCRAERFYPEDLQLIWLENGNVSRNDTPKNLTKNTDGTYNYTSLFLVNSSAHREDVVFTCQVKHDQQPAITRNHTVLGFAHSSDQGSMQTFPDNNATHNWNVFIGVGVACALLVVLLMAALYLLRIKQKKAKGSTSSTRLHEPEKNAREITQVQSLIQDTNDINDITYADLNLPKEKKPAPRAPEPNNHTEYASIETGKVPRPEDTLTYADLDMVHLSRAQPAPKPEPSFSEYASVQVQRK
Description: flow cytometry, C57/BL6 macrophages, anti-human Fc detection; C57/BL6 macrophages (whole cells), not SIRPα-CHO-K1.

The target in assay [5] is T5, mouse SIRPα on cells. Description: flow cytometry, C57BL/6-CD11b+ Cell Binding.
Assay [6] addresses T5, mouse SIRPα on cells. Description: flow cytometry competition on C57/BL6 macrophages, competitor mCD47-hFc 6.7 nM, antibody at 0.5 nM or more.

T1 sequence (P12314 16-374): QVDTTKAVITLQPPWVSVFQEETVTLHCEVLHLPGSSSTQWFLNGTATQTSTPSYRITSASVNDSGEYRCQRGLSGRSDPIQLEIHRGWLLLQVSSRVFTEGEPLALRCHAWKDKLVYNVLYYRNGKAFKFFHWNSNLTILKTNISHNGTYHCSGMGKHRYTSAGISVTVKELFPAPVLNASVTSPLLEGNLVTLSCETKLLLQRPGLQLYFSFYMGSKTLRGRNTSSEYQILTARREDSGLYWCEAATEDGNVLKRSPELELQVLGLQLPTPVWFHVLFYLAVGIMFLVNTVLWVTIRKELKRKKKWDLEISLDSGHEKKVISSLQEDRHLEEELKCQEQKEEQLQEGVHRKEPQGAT
T3 sequence (P08637 17-254 F176V): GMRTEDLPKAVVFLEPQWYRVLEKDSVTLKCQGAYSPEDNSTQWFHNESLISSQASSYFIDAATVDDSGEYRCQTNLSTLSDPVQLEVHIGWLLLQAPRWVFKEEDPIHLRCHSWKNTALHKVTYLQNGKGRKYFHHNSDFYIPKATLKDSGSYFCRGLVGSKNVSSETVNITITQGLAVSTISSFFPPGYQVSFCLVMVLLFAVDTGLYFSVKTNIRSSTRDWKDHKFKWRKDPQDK

B1: SIRPAB-11-4PE (antibody, human IgG4 S228P, kappa)
light: DIQMTQSPSSVSASVGDRVTITCRASQGISSWLAWYQQKPGKAPKLLIYAASNLQSGVPSRFSGSGSGTDFTLTISSLQPEDFATYYCQQGASFPITFGGGTKVEIKRTVAAPSVFIFPPSDEQLKSGTASVVCLLNNFYPREAKVQWKVDNALQSGNSQESVTEQDSKDSTYSLSSTLTLSKADYEKHKVYACEVTHQGLSSPVTKSFNRGEC
heavy: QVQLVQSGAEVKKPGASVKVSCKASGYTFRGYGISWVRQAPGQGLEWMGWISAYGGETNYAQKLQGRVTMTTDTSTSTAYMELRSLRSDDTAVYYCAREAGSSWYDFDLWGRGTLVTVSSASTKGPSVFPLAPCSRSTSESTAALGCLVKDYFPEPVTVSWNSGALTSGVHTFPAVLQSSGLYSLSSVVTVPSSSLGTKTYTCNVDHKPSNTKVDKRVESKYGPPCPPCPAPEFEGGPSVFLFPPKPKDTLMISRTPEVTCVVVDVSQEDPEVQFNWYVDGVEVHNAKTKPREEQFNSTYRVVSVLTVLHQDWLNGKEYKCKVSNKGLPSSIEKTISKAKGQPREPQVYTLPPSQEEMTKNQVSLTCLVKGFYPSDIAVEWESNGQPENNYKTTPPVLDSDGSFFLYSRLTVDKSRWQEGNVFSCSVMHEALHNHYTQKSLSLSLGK
notes: human IgG4 with S228P and L235E; also called SIRPAB-11-IgG4PE; SIRPAB-11-IgG4PE-AF647
Regarding B1, the EC50 came to 756 nM with FcγR1 (CD64); 5180 nM with FcγR2B; 2060 nM with FcγR3A (CD16aV158); 0.426 nM in assay [1]; 0.39 nM in [2]; 0.43 nM in assay [3].

B2: mCD47-hFc (Fc fusion, mouse, UniProt Q61735 19-140, looked up, not shown: a dimerising Fc or GST)
chain: QLLFSNVNSIEFTSCNETVVIPCIVRNVEAQSTEEMFVKWKLNKSYIFIYDGNKNSTTTDQNFTSAKISVSDLINGIASLKMDKRDAMVGNYTCEVTELSREGKTVIELKNRTVSWFSPNEK
notes: also called recombinant mouse CD47
On to B2, for which the EC50 with mouse SIRPα on cells [4] turned out to be 6.7 nM.

B3: SIRPAB-21 with mouse IgG2a (antibody, V domains shown)
VH: QVQLQESGPGLVKPSQTLSLTCTVSGGSISSGGYYWSWIRQHPGKGLEWIGAIYYSGPIYYNPSLKSRVTISVDTSKNQFSLKLSSVTAADTAVYYCSKEGYHSGMDVWGQGTTVTVSS
VL: DIQMTQSPSSLSASVGDRVTITCQASDDISDYLNWYQQKPGKAPKLLIYDASNLETGVPSRFSGSGSGTDFTFTISSLQPEDIATYYCQQFAYLPWTFGGGTKVEIK
In the case of B3, in the assay with mouse SIRPα on cells [5], the “EC50 (read off the curve)” value was roughly 0.3 nM. In the assay with mouse SIRPα on cells [6], the “percent of mCD47 binding blocked” value is greater than 90%.

A word on the EC50: it is the midpoint of the concentration-response curve. Read a low EC50 as an effect from little substance. For orientation: EC50 (read off the curve) means the concentration needed to bring the measured effect to its halfway point. Low values mean an effect from little substance, high ones a need for much substance.
